Test results as given in FireProtDB (doi:10.1002/prot.20309).

B1: Beta-lactoglobulin-1A/1C wild type, P04119 (protein)
chain: MRCLLLTLGLALLCGVQAVEVTPIMTELDTQKVAGTWHTVAMAVSDVSLLDAKSSPLKAYVEGLKPTPEGDLEILLQKRENDKCAQEVLLAKKTDIPAVFKINALDENQLFLLDTDYDSHLLLCMENSASPEHSLVCQSLARTLEVDDQIREKFEDALKTLSVPMRILPAQLEEQCRV
B2: Beta-lactoglobulin wild type, P02754 (protein)
chain: MKCLLLALALTCGAQALIVTQTMKGLDIQKVAGTWYSLAMAASDISLLDAQSAPLRVYVEELKPTPEGDLEILLQKWENGECAQKKIIAEKTKIPAVFKIDALNENKVLVLDTDYKKYLLFCMENSAEPEQSLACQCLVRTPEVDDEALEKFDKALKALPMHIRLSFNPTQLEEQCHI

details: Sus scrofa; pH 2; 25 °C; GdnHCl; Fluorescence; Phosphate 10 mM; whole UniProt chain shown

Row | Protein | denaturant m value | denaturant midpoint (higher = more stable) | unfolding free energy
1 | B1 | 2.2 kcal/mol/M | 1 M | 2.1 kcal/mol

same assay, conditions: Sus scrofa; pH 2; 25 °C; GdnHCl; NMR; Phosphate 10 mM; whole UniProt chain shown

Row | Protein | denaturant m value | denaturant midpoint (higher = more stable) | unfolding free energy
2 | B1 | 3.5 kcal/mol/M | 0.7 M | 2.3 kcal/mol

same assay, conditions: Sus scrofa; pH 6; 25 °C; GdnHCl; NMR; Phosphate 10 mM; whole UniProt chain shown

Row | Protein | denaturant m value | denaturant midpoint (higher = more stable) | unfolding free energy
3 | B1 | 4.2 kcal/mol/M | 1.1 M | 4.6 kcal/mol

same assay, conditions: Bos taurus; pH 2; 25 °C; GdnHCl; CD; Phosphate 10 mM; transition: 3; whole UniProt chain shown

Row | Protein | denaturant m value | denaturant midpoint (higher = more stable) | unfolding free energy
4 | B2 | 1 kcal/mol/M | 3.8 M | 12.8 kcal/mol

same assay, conditions: Bos taurus; pH 6; 25 °C; GdnHCl; CD; Phosphate 10 mM; whole UniProt chain shown

Row | Protein | denaturant m value | denaturant midpoint (higher = more stable) | unfolding free energy
5 | B2 | 4.1 kcal/mol/M | 2.8 M | 11.5 kcal/mol
